Measurements published in FireProtDB (doi:10.1093/protein/14.11.891).

B1: Sialidase, P29768 (parent)
chain: MTVEKSVVFKAEGEHFTDQKGNTIVGSGSGGTTKYFRIPAMCTTSKGTIVVFADARHNTASDQSFIDTAAARSTDGGKTWNKKIAIYNDRVNSKLSRVMDPTCIVANIQGRETILVMVGKWNNNDKTWGAYRDKAPDTDWDLVLYKSTDDGVTFSKVETNIHDIVTKNGTISAMLGGVGSGLQLNDGKLVFPVQMVRTKNITTVLNTSFIYSTDGITWSLPSGYCEGFGSENNIIEFNASLVNNIRNSGLRRSFETKDFGKTWTEFPPMDKKVDNRNHGVQGSTITIPSGNKLVAAHSSAQNKNNDYTRSDISLYAHNLYSGEVKLIDDFYPKVGNASGAGYSCLSYRKNVDKETLYVVYEANGSIEFQDLSRHLPVIKSYN

Variants of: B1
Conditions: Salmonella typhimurium (strain LT2 / SGSC1412 / ATCC 700720), pH 7, CD, Potassium phosphate 10 mM, reversible: yes, structure 1DIL, whole UniProt chain shown; for ddG of mutation (higher = less stable) / denaturant midpoint (higher = more stable) / unfolding free energy: 25 °C, GdnHCl; for Tm / change of melting temperature, mutant - wild type (higher = more stable): Thermal

For A53L, the “ddG of mutation (higher = less stable)” value was -0.81 kcal/mol, the “denaturant midpoint (higher = more stable)” value was 1.64 M and the unfolding free energy was 5.05 kcal/mol. The Tm was 62 °C and the “change of melting temperature, mutant - wild type (higher = more stable)” value was 5 °C.

In the case of A69V, the “ddG of mutation (higher = less stable)” value is reported as -0.62 kcal/mol, the “denaturant midpoint (higher = more stable)” value is reported as 1.42 M and the unfolding free energy is reported as 4.86 kcal/mol. For the same variant, the Tm was 60 °C and the “change of melting temperature, mutant - wild type (higher = more stable)” value was 3 °C.
